Consider one substance from paper PMC3806662.

This assay deals with BiP (human (endogenous in HEK293T)) (UniProt P11021). Briefly: co-IP.
UniProt P11021, sequence (P11021 19-654): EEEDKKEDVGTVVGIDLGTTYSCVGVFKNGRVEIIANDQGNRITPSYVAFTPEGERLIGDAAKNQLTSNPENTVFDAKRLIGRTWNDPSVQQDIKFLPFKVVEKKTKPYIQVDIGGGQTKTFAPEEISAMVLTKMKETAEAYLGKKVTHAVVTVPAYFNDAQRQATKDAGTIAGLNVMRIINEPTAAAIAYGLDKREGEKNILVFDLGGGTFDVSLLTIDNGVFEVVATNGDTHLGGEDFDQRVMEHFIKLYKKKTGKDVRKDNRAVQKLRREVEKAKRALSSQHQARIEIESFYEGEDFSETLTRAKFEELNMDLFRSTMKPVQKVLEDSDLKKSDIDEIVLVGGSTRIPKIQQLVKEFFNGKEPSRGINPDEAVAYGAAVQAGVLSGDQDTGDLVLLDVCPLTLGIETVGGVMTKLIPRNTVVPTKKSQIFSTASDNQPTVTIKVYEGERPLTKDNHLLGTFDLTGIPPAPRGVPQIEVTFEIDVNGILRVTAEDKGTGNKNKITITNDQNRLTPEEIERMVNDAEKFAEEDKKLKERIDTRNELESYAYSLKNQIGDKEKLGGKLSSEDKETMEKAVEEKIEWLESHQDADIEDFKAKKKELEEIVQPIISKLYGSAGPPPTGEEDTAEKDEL

Substance “QQQ mutant of NHK (from UniProt P01009 25-418) (natural protein)” displayed a fold co-precipitated relative to NHK of 2 fold.
